US20140274782A1, “AFFINITY REAGENTS AND METHODS FOR DETECTION, PURIFICATION, AND PROTEOMIC ANALYSIS OF METHYLATED PROTEINS” (The Board of Trustees of the Leland Stanford Junior …, priority 2013, published 2014)

How the values were obtained:
[1] = test system: methylated proteins (H3, p53, RelA, SIRT1) in HeLa / 293T nuclear extract; assay: Protein pull-down from nuclear extract with GSH-Sepharose coupled domain, Western blot; format: binding
Method: GSH-Sepharose coupled domain beads were generated for pull-down by incubating GSHSepharose resin with E. coli lysate containing sufficient 3×MBT for bead saturation. Bead-coupled 3×MBT was incubated with nuclear extract overnight and proteins that precipitated with the resin were analyzed by SDS-PAGE.
Recombinant GST-SIRT1 was expressed by baculoviral transduction of the Sf9 insect cell line as previously described (Levy et al. (2011) Nat. Immunol. 12, 29-36). A panel of enzymes was tested for ability to methylate recombinant SIRT1 using ^3H-SAM in in vitro methylation reactions (Kuo et al. (2011) Mol. Cell 44, 609-620). SIRT1K622R was generated by site-directed mutagenesis (Stratagene). For the pull-down experiment, 293T cells were transfected with a 10:1 enzyme:substrate DNA ratio. 150 μg of nuclear proteins were used for pull-downs with 3×MBT or 3×MBTD355N coupled GSH-Sepharose as described above.
GSH-Sepharose coupled domain beads were prepared for pull-down by expressing the domain in E. coli. Cells were lysed as described, and lysate was incubated overnight at 4° C. with GSH-Sepharose with a sufficient lysate-to-Sepharose ratio to result in Sepharose binding saturation. The GSH-Sepharose was then washed 3×5 minutes in binding buffer and resuspended in binding buffer to 50% slurry. 150 μg of nuclear proteins were incubated overnight at 4° C. with 15 μl 50% slurry of either 3×MBT or 3×MBTD355N coupled to GSH-Sepharose in binding buffer (total volume of about 150 μl). Beads were washed 3×5 minutes in 0.5 ml of binding buffer. Beads were boiled in 25 μl of 2× Laemmli buffer and supernatant was analyzed by SDS-PAGE and Western blotting.
For SETD6/RelA and SET8/p53 pull-down experiments, 293T cells were transfected with a 1:1 enzyme:substrate DNA ratio. 150 μg of nuclear proteins were incubated overnight at 4° C. with 15 μl 50% slurry of either 3×MBT or 3×MBTD355N coupled to GSH-Sepharose in binding buffer. […] Laemmli buffer was added to the supernatant to 1×, and the resulting samples analyzed by SDS-PAGE and Western blotting.

[2] = test system: methylated histones (HeLa nucleosomes, calf thymus histones), p53K382me1, H3K9me2; assay: Far Western assay; format: binding
Method: For Far Western assays, proteins were separated by SDS-PAGE and transferred to a PVDF membrane. Following blocking, membranes were incubated overnight with the indicated domain. Domain binding was determined using an epitope tag-specific antibody and appropriate HRP-conjugated secondary antibody.
For Far Western assays on purified HeLa nucleosomes and calf thymus histones, the indicated amounts of nucleosome or histone were separated by SDS-PAGE and transferred to a PVDF membrane. The membrane was blocked in milk prepared with Tris-buffered saline with 0.1% Tween (TBST). Membranes were incubated overnight at 4° C. with 1 μg/ml of the indicated domain in TBST. Domain binding was determined using an epitope tag-specific antibody and appropriate HRP-conjugated secondary antibody.
For the SET8/p53 Far Westerns, p53 was methylated in vitro as previously described (Kuo et al., 2011), with 5 μg enzyme and 1 μg substrate per 25 μl of reaction volume incubated at 30° C. overnight. Following the methylation reaction, PreScission Protease was added directly to the reaction mix and samples were incubated overnight at 4° C. Blotting was conducted as described above. G9a SET domain/recombinant H3 (New England BioLabs) samples were prepared similarly, without a GST cleavage step.

B1: 3×MBT: three MBT repeats of L3MBTL1 (amino acids 190-530 of accession NP—056293.4), expressed as GST or Flag fusion; methyl-lysine affinity reagent (protein)
chain: EEWSSSQPATGEKKECWSWESYLEEQKAITAPVSLFQDSQAVTHNKNGFKLGMKLEGIDPQHPSMYFILTVAEVCGYRLRLHFDGYSECHDFWVNANSPDIHPAGWFEKTGHKLQPPKGYKEEEFSWSQYLRSTRAQAAPKHLFVSQSHSPPPLGFQVGMKLEAVDRMNPSLVCVASVTDVVDSRFLVHFDNWDDTYDYWCDPSSPYIHPVGWCQKQGKPLTPPQDYPDPDNFCWEKYLEETGASAVPTWAFKVRPPHSFLVNMKLEAVDRRNPALIRVASVEDVEDHRIKIHFDGWSHGYDFWIDADHPDIHPAGWCSKTGHPLQPPLGPREPSSASPGG
modifications: left off: a dimerising Fc or GST
precipitation of 3× Flag-SIRT1 ([1]; 293T cells, only when G9a is co-expressed and K622 is intact): specifically precipitated
precipitation of methylated proteins H3 and p53 ([1]; HeLa nuclear extract): precipitates
precipitation of methylated RelA ([1]; nuclear extract of 293T cells co-expressing SETD6 and RelA): precipitates
Far Western detection of recombinant H3 dimethylated at lysine 9 (H3K9me2) by G9a SET domain [2]: specifically detects
Far Western detection of recombinant p53 mono-methylated at lysine 382 by SET8 [2]: detected
Far Western detection of histones ([2]; purified HeLa nucleosomes and calf thymus histones): detected
